Experimental findings from PMC7376121, “In-Lipid Structure of Pressure-Sensitive Domains Hints Mechanosensitive Channel Functional Diversity” (Biophysical Journal, 2020) are described below.

First the molecules themselves.
B1: Mycobacterium tuberculosis MscL Y87C, MTSSL spin-labelled (TbMscL Y87R1) (natural protein)
chain: MLKGFKEFLARGNIVDLAVAVVIGTAFTALVTKFTDSIITPLINRIGVNAQSDVGILRIGIGGGQTIDLNVLLSAAINFFLIAFAVCFLVVLPYNTLRKKGEVEQPGDTQVVLLTEIRDLLAQTNGDSPGRHGGRGTPSPTDGPRASTESQ
modifications: MTSSL spin label on the cysteine at 87 (R1)
notes: also called TbY87R1
B2: Mycobacterium tuberculosis MscL L89C, MTSSL spin-labelled (TbMscL L89R1) (natural protein)
chain: MLKGFKEFLARGNIVDLAVAVVIGTAFTALVTKFTDSIITPLINRIGVNAQSDVGILRIGIGGGQTIDLNVLLSAAINFFLIAFAVYFCVVLPYNTLRKKGEVEQPGDTQVVLLTEIRDLLAQTNGDSPGRHGGRGTPSPTDGPRASTESQ
modifications: MTSSL spin label on the cysteine at 89 (R1)
notes: also called TbL89R1
B3: Mycobacterium tuberculosis MscL F88C, MTSSL spin-labelled (TbMscL F88R1) (natural protein)
chain: MLKGFKEFLARGNIVDLAVAVVIGTAFTALVTKFTDSIITPLINRIGVNAQSDVGILRIGIGGGQTIDLNVLLSAAINFFLIAFAVYCLVVLPYNTLRKKGEVEQPGDTQVVLLTEIRDLLAQTNGDSPGRHGGRGTPSPTDGPRASTESQ
modifications: MTSSL spin label on the cysteine at 88 (R1)
notes: also called TbF88R1

This data set concerns the molecule itself. The data set is described as follows: PELDOR/DEER; spin-labelled single-cysteine channel in DDM detergent solution (50 mM sodium phosphate pH 7.5, 300 mM NaCl, 0.05% DDM), diluted 1:1 with deuterated ethylene glycol, flash frozen; Q band, 50 K; distances between the labels of the subunits of one channel.
The stoichiometry N is a count of units in the complex or per binding partner. Turning to B1, the “stoichiometry N” value was 5. The figure for B2 is 5; for B3 it is 5.
